Reference: article PMC5457526

Key:
[1] = biological target: constitutive dimer mutant NT_(E79QE84QE119Q) of the E. australis MaSp1 N-terminal domain (Euprosthenops australis); assay: SEC; Superdex 75, 2 mg ml^-1, 20 mM Tris, 150 mM NaCl, 1 mM EDTA, pH 8, room temperature; monomer to dimer
[2] = biological target: constitutive dimer mutant NT_(E79QE84QE119Q) of the E. australis MaSp1 N-terminal domain (Euprosthenops australis); assay: SEC; Superdex 75, 2 mg ml^-1, 20 mM MES, 150 mM NaCl, 1 mM EDTA, pH 5.5, room temperature; monomer to dimer
[3] = biological target: recombinant fragment human surfactant protein D (human); assay: native MS; ESI-MS of SEC separated protein in 100 mM ammonium acetate, pH 7.5
[4] = biological target: recombinant fragment human surfactant protein D (human); assay: SEC; Superdex 200, 1.5 mg ml^-1, 20 mM Tris, 150 mM NaCl, 1 mM EDTA, pH 8
[5] = biological target: wild-type N-terminal domain (NT) of Euprosthenops australis major ampullate spidroin protein (MaSp) 1 (Euprosthenops australis); assay: SEC; Superdex 75, 2 mg ml^-1, 20 mM MES, 150 mM NaCl, 1 mM EDTA, pH 5.5, room temperature; monomer to dimer

“constitutive dimer mutant NT_(E79QE84QE119Q) of the E. australis MaSp1 N-terminal domain (domain or fragment)” was tested, and the stoichiometry N [1] was 2 and the stoichiometry N [2] was 2.

“recombinant fragment human surfactant protein D (domain or fragment)” was tested, and the stoichiometry N [3] was 3 and the stoichiometry N [4] was 3.

With “wild-type N-terminal domain (NT) of Euprosthenops australis major ampullate spidroin protein (MaSp) 1 (domain or fragment)” the stoichiometry N [5] was 2.
